According to patent publication US20130101582A1, “Tiki1 and Tiki2, Wnt Inhibitors” (CHILDREN'S MEDICAL CENTER CORPORATION, priority 2010, published 2013):

What was measured:
Wnt3a signaling = assay: TOPFLASH reporter assay, Wnt3a co-transfected with Tiki1 or Tiki2 in HEK293T cells; assay type: cell-based, human
Text: Wnt3a and Tiki1 or Tiki2 were co-transfected. The TOPFLASH reading (normalized to Renilla) in Wnt3a alone was set as 100. DNA transfection amounts are shown per well in a standard 24-well plate format. Representative data from one of three independent experiments is shown.
The enlarged head phenotype by Tiki1 overexpression is indistinguishable from that by overexpression of Dkk1, a Wnt/LRP6 antagonist (MacDonald, B. T. et al., Dev Cell 17, 9-26 (2009); Glinka, A. et al., Nature 391, 357-362 (1998)). […] Thus Tiki1 likely acts at or upstream of Wnt receptors. […] Xenopus Tiki2, and human Tiki1 and Tiki2 also behaved as Wnt antagonists in Xenopus embryos, HEK293T cells (FIG. 2C) and mouse L cells (FIG. 5A).

TOPFLASH reporter = TOPFLASH reporter activation by Wnt3a produced from Tiki2-expressing L cells; assay type: cell-based; conditions: Wnt3a CM
Text: As Tiki proteins are related to bacterial proteins of unknown function, it was speculated that Tiki may antagonize Wnt signaling through a novel mechanism, possibly in an enzymatic fashion. Human Tiki2 was stably expressed in L cells or Wnt3a-expressing L cells (human Tiki1 was poorly expressed in L cells). […] In fact Wnt3a CM restored beta-catenin stabilization in Wnt3a-expressing cells that also expressed Tiki2 (FIG. 5A).

Wnt3a = Wnt3a (Mus musculus, UniProt P27467); assay: Metabolic labeling (az-15 / 35S) to quantify Wnt3a acylation in HEK293T cells; assay type: cell-based; design: expressed in transfected cells; host or cells: HEK293T; conditions: co-expressed with Wnt3a in HEK293T cells; versus GFP control
Procedure: FIG. 6E is a gel showing that Tiki2, but not the control GFP, reduces Wnt3a acylation in HEK293T cells (Top panel). The total amount of Wnt3a is constant (bottom panel).
Metabolic labeling was performed to quantify Wnt3a acylation. Wnt3a co-expressed with GFP (control) or hTiki2 in HEK293T cells was metabolically labeled with an azido-palmitic acid analog (az-15) and [^35S]-Methionine/Cysteine. Wnt3a secreted in the culture medium was immunoprecipitated and subjected to click chemistry reaction using the Rhodamine-labeled ALK reagent (ALK-Rho), which reacts with az-15 (Charron G et al., JACS 131, 4967, 2009). The fluorescent signal indicates the acylation amount of Wnt3a whereas ^35S signal indicates the total amount of Wnt3a protein (FIG. 6E). […] Thus the maximal reduction of acylation by Tiki2 is expected to be 50% if the deacylation is complete and there are only two acylation sites. The 31% reduction we observed is consistent with the possibility of three acylation sites, although it is also possible that there are only two acylation sites in Wnt3a, and Tiki2 deacylation of one of these two sites was incomplete in our experiment.

Chain of Wnt3a (P27467 19-352): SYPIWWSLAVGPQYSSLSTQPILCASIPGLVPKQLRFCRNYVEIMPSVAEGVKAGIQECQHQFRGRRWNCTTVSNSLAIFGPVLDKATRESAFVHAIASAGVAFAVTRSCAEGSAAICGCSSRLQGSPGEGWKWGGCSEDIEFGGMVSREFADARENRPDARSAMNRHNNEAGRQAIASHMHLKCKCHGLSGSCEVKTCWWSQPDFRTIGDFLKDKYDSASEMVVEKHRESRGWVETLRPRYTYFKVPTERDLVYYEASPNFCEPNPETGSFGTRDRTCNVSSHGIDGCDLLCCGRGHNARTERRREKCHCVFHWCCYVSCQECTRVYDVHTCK

- Reduction of Wnt3a acylation (Wnt3a): about 31%
B1: Tiki2: Human Tiki2 (XP 371250/LOC388630) (SEQ ID NO:2), expressed in L or HEK293T cells (protein, listed as Homo sapiens)
chain: MHAALAGPLLAALLATARARPQPPDGGQCRPPGSQRDLNSFLWTIRRDPPAYLFGTIHVPYTRVWDFIPDNSKAAFQASTRVYFELDLTDPYTISALASCQLLPHGENLQDVLPHELYWRLKRHLDYVKLMMPSWMTPAQRGKGLYADYLFNAIAGNWERKRPVWVMLMVNSLTERDVRFRGVPVLDLYLAQQAEKMKKTTGAVEQVEEQCHPLNNGLNFSQVLFALNQTLLQQESVRAGSLQASYTTEDLIKHYNCGDLSAVIFNHDTSQLPNFINTTLPPHEQVTAQEIDSYFRQELIYKRNERMGKRVMALLRENEDKICFFAFGAGHFLGNNTVIDILRQAGLEVDHTPAGQAIHSPAPQSPAPSPEGTSTSPAPVTPAAAVPEAPSVTPTAPPEDEDPALSPHLLLPDSLSQLEEFGRQRKWHKRQSTHQRPRQFNDLWVRIEDSTTASPPPLPLQPTHSSGTAKPPFQLSDQLQQQDPPGPASSSAPTLGLLPAIATTIAVCFLLHSLGPS
- Wnt3a signaling, TOPFLASH reporter (Wnt3a signaling): inhibit Wnt3a signaling
- Activity of Wnt3a produced from Tiki2-expressing L cells in activation of TOPFLASH reporter expression (TOPFLASH reporter): minimal activity
